According to patent US20240425575A1:

B1: B2-F10 (VHH)
VHH: QVQLVESGGGLVQAGGSLRLSCGASGSAVSITLMAWYRQAPGKQRELVAGISNIGDTNYVDSVKDRFTISRINAKNAMYLQMNSLKPEDTAVYYCFAQDWGGHHYWGQGTQVTVSS
B2: B4-C11 (VHH)
VHH: QVQLVESGGGLVQAGGSLRLSCAASGSTFSNVVAGWYRQAPGKQRELVAGISNIGDTRYADSVKGRFTISRDNAKKAVYLQMNSLKPEDTAVYYCYAKYWARDYWGQGTQVTVSS
B3: B1-H9 (VHH)
VHH: EVQLVESGGDLVQAGGSLRLSCAASGSTFSSTIAGWYRQAPGKQRELVAGISNIGDTRYADSVKGRFTISRDNAKKTVYLQMNSLKPEDTAVYYCYAKYWARDYWGQGTQVTVSS
B4: B3-H7 (VHH)
VHH: EVQVVESGGGLVQAGGSLRLSCAASGSTAINSVAGWYRQAPGKQRELVAGISNIGDTRYADSVKGRFTISRDNAKKTVYLQMNSLKSEDTAVYYCYAKYWARDYWGQGTQVTVSS
B5: B3-C11 (VHH)
VHH: EVQLVESGGGLVQAGGSLRLSCFVSGSTFSASLMGWYRQAPGKERELVAGISNIGNTVYADSAKGRFTISRDGAKNTVHLQMNALKPEDTAVYYCYATVPRAAWGQGTQVTVSS
B6: B1-G8 (VHH)
VHH: QVQLVESGGGLVQTGDSLRLSCVAPGISFSNRGMAWYRQAPGKQRELVAAIDSAGSQRYAGSVKDRFTISRDNAKNTVFLQMNSLKPEDTAVYYCNQPRFNLWGQGTQVTVSS
B7: B2-A6 (VHH)
VHH: QLQLVESGGGLVQAGGSLRLSCFVSGSTFSASLMGWYRQAPGKERELVAGISNIGNTVYADSAKGRFTISRDGAKNTVHLQMNALKPEDTAVYYCYATVPRAAWGQGTQVTVSS
B8: B1-G3 (VHH)
VHH: EVQVVESGGGLVQPGGSLRLSCVASMPSGISFSNRGMAWYRQAPGKQRELVAAIDSAGSTRYQDSVKGRFTISRDNAKNTVFLQMNSLKPEDTAVYYCNQPAFKAWGQGTQVTVSS
B9: B4-D3 (VHH)
VHH: QLQLVESGGGLVQPGGSLRLSCVASGASGISFSNRGMAWYRQAPGKQRELVAAIDSAGSPAYAGSVKGRFTISRDNAKNTVFLQMNSLKPEDTAVYYCNQPRFNLWGLGTQVTVSS
B10: B2-E2 (VHH)
VHH: EVQLVESGGGLVQPGESLRLSCVASGFPSGFTFSDYQMYWYRQAPGKERELVAIISNDGLRKTYADSVKGRFTISRDNAKNTMFLQMNSLKPEDTAVYVCNVRRANRDDWGQGTQVTVSS

What follows are binders tested against BSA (UniProt P02769) (assay: ELISA, BSA coated (control), E. coli supernatant, anti-VHH-HRP).
Sequence of BSA (P02769 25-607 limits assumed): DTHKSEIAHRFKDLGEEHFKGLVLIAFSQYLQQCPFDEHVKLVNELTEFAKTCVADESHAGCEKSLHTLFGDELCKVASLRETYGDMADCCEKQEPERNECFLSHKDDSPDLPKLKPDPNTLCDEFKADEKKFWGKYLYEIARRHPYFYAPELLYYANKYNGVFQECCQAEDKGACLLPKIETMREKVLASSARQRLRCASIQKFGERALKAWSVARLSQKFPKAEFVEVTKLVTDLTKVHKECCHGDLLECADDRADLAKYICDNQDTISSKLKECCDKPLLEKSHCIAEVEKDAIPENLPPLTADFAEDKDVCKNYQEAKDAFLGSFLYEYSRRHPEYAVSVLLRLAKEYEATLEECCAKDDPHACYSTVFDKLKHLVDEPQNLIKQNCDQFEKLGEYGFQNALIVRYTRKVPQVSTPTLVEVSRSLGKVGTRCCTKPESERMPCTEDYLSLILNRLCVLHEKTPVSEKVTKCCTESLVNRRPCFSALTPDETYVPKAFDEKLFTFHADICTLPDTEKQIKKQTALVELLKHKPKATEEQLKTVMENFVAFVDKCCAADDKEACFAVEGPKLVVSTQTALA
Binder B1 has an OD Value Obtained after Binding to BSA of 0.063 OD 450 nm.
B2 was tested, and the OD Value Obtained after Binding to BSA was 0.071 OD 450 nm.
B3 was tested, and the OD Value Obtained after Binding to BSA was 0.058 OD 450 nm.
With B4 the OD Value Obtained after Binding to BSA was 0.056 OD 450 nm.
B5 was tested, and the OD Value Obtained after Binding to BSA was 0.071 OD 450 nm.
In the case of B6, the OD Value Obtained after Binding to BSA is reported as 0.065 OD 450 nm.
With B7 the OD Value Obtained after Binding to BSA was 0.049 OD 450 nm.
Binder B8 has an OD Value Obtained after Binding to BSA of 0.067 OD 450 nm.
In the case of B9, the OD Value Obtained after Binding to BSA is reported as 0.059 OD 450 nm.
For B10, the OD Value Obtained after Binding to BSA was 0.07 OD 450 nm.
